Measured values reported in PMC2756588.

T1: Abp1, P15891
T1 sequence (P15891 535-592, looked up): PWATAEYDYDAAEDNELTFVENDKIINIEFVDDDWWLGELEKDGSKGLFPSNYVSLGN

T2: Bbc1, P47068
T2 sequence (P47068 1-78, looked up): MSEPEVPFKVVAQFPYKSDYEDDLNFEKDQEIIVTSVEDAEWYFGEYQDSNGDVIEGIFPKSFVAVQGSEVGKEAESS

T3: Boi1, P38041
T3 sequence (P38041 1-86, looked up): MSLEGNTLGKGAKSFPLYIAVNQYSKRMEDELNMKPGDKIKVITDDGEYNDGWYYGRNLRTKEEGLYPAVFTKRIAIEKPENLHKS

T4: Boi2, P39969
T4 sequence (P39969 32-116, looked up): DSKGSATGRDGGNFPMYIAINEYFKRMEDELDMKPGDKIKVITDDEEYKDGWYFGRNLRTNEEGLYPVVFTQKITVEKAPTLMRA

T5: Bud14, P27637
T5 sequence (P27637 247-328, looked up): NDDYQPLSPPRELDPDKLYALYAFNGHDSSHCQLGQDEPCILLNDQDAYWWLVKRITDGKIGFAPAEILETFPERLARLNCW

T6: Bzz1-1, P38822
T6 sequence (P38822 478-572, looked up): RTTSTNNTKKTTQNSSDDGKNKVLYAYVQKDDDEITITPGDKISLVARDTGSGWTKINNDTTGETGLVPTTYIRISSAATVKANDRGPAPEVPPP

T7: Bzz1-2, P38822
T7 sequence (P38822 568-633, looked up): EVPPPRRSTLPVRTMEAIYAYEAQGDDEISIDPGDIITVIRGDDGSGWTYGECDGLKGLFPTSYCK

T8: Cdc25, P04821
T8 sequence (P04821 50-136, looked up): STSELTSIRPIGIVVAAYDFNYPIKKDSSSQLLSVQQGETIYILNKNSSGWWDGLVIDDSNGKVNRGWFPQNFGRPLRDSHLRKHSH

T9: Cyk3, Q07533
T9 sequence (Q07533 1-83, looked up): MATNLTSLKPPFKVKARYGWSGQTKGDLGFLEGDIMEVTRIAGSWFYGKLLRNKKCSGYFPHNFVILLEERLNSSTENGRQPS

T10: Fus1, P11710
T10 sequence (P11710 432-512, looked up): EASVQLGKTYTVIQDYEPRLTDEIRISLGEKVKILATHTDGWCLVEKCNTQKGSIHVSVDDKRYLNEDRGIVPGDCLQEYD

T11: Hof1, Q05080
T11 sequence (Q05080 590-669, looked up): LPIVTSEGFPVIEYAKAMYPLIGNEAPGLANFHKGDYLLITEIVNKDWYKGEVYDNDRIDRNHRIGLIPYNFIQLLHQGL

T12: Hse1, P38753
T12 sequence (P38753 208-285, looked up): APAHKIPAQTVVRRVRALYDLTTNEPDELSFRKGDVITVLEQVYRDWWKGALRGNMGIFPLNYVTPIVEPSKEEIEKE

T13: Lsb1, P53281
T13 sequence (P53281 45-122, looked up): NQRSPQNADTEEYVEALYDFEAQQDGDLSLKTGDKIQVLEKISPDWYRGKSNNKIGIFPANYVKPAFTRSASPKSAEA

T14: Lsb3, P43603
T14 sequence (P43603 385-451, looked up): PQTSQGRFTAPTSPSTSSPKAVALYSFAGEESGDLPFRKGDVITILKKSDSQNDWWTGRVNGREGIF

T15: Lsb4, P32793
T15 sequence (P32793 402-468, looked up): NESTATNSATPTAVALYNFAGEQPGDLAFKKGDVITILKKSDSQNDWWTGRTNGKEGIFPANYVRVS

T16: Myo5, Q04439
T16 sequence (Q04439 1072-1160, looked up): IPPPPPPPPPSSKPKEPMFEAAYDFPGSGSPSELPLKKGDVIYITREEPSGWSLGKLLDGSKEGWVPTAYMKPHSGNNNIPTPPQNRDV

T17: Nbp2, Q12163
T17 sequence (Q12163 103-180, looked up): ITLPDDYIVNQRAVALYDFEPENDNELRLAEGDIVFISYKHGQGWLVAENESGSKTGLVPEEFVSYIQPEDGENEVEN

T18: Pex13, P80667
T18 sequence (P80667 295-386, looked up): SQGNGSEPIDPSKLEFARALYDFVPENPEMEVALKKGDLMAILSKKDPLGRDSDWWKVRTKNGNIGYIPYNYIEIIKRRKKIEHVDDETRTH

T19: Pin3, Q06449
T19 sequence (Q06449 53-122, looked up): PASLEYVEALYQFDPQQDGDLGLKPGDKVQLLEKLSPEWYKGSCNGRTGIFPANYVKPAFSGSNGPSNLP

T20: Sla1-2, P32790
T20 sequence (P32790 60-140, looked up): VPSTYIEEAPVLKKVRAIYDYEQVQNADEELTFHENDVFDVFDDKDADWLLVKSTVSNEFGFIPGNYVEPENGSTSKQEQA

T21: Sla1-3, P32790
T21 sequence (P32790 344-424, looked up): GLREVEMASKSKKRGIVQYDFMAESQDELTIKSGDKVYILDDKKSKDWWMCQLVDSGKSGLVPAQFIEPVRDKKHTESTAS


Key:
Test in all cases: SPOT array
Abp1, P15891 = biological target: T1, Abp1, P15891; conditions: median of control spots 935
Bbc1, P47068 = biological target: T2, Bbc1, P47068; conditions: median of control spots 796
Bem1-1, P29366 = conditions: median of control spots 4282
Bem1-2, P29366 = conditions: median of control spots 4347
Boi1, P38041 = biological target: T3, Boi1, P38041; conditions: median of control spots 1162
Boi2, P39969 = biological target: T4, Boi2, P39969; conditions: median of control spots 1161
Bud14, P27637 = biological target: T5, Bud14, P27637; conditions: median of control spots 956
Bzz1-1, P38822 = biological target: T6, Bzz1-1, P38822; conditions: median of control spots 4446
Bzz1-2, P38822 = biological target: T7, Bzz1-2, P38822; conditions: median of control spots 4538
Cdc25, P04821 = biological target: T8, Cdc25, P04821; conditions: median of control spots 969
Cyk3, Q07533 = biological target: T9, Cyk3, Q07533; conditions: median of control spots 1451
Fus1, P11710 = biological target: T10, Fus1, P11710; conditions: median of control spots 1200
GST = conditions: median of control spots 978
Hof1, Q05080 = biological target: T11, Hof1, Q05080; conditions: median of control spots 4086
Hse1, P38753 = biological target: T12, Hse1, P38753; conditions: median of control spots 1727
Lsb1, P53281 = biological target: T13, Lsb1, P53281; conditions: median of control spots 388
Lsb3, P43603 = biological target: T14, Lsb3, P43603; conditions: median of control spots 406
Lsb4, P32793 = biological target: T15, Lsb4, P32793; conditions: median of control spots 397
Myo3, P36006 = conditions: median of control spots 468
Myo5, Q04439 = biological target: T16, Myo5, Q04439; conditions: median of control spots 471
Nbp2, Q12163 = biological target: T17, Nbp2, Q12163; conditions: median of control spots 357
Pex13, P80667 = biological target: T18, Pex13, P80667; conditions: median of control spots 1341
Pin3, Q06449 = biological target: T19, Pin3, Q06449; conditions: median of control spots 2171
Rvs167, P39743 = conditions: median of control spots 2707
Sho1, P40073 = conditions: median of control spots 1148
Sla1-2, P32790 = biological target: T20, Sla1-2, P32790; conditions: median of control spots 712
Sla1-3, P32790 = biological target: T21, Sla1-3, P32790; conditions: median of control spots 5475

Sho1, P40073, sequence (P40073 287-367): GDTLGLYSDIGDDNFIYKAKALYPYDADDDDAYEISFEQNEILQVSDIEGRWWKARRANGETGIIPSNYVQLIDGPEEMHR
Rvs167, P39743, sequence (P39743 419-482): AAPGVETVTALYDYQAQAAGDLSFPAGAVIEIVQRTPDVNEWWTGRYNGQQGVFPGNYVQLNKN
Bem1-1, P29366, sequence (P29366 55-141): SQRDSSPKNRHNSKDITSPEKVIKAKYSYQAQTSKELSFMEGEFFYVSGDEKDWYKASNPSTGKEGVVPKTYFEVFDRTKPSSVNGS
Bem1-2, P29366, sequence (P29366 139-227): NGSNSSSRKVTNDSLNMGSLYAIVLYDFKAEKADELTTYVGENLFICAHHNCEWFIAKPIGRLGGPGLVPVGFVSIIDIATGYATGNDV

Binder | SPOT intensity (Abp1, P15891) | SPOT intensity (Bbc1, P47068) | SPOT intensity (Bem1-1, P29366) | SPOT intensity (Bem1-2, P29366) | SPOT intensity (Boi1, P38041) | SPOT intensity (Boi2, P39969) | SPOT intensity (Bud14, P27637) | SPOT intensity (Bzz1-1, P38822) | SPOT intensity (Bzz1-2, P38822) | SPOT intensity (Cdc25, P04821) | SPOT intensity (Cyk3, Q07533) | SPOT intensity (Fus1, P11710) | SPOT intensity (GST) | SPOT intensity (Hof1, Q05080) | SPOT intensity (Hse1, P38753) | SPOT intensity (Lsb1, P53281) | SPOT intensity (Lsb3, P43603) | SPOT intensity (Lsb4, P32793) | SPOT intensity (Myo3, P36006) | SPOT intensity (Myo5, Q04439) | further results
LFMKGTPEFPKSGFS | 85 | 1 | 0 | 0 | 0 | 0 | 1 | 0 | 0 | 0 | 0 | 0 | 0 | 0 | 2 | 67 | 8 | 50 | 54 | 48 | SPOT intensity (Nbp2, Q12163): 5; SPOT intensity (Pex13, P80667): 211; SPOT intensity (Pin3, Q06449): 40; SPOT intensity (Rvs167, P39743): 1; SPOT intensity (Sho1, P40073): 17; SPOT intensity (Sla1-2, P32790): 5; SPOT intensity (Sla1-3, P32790): 0
PVLPPPRSPNRPTLS | 133 | 151 | 1 | 6 | 849 | 1280 | 0 | 8 | 9 | 0 | 0 | 0 | 1 | 9 | 0 | 39 | 102 | 325 | 22 | 6 | SPOT intensity (Nbp2, Q12163): 0; SPOT intensity (Pex13, P80667): 86; SPOT intensity (Pin3, Q06449): 7; SPOT intensity (Rvs167, P39743): 6; SPOT intensity (Sho1, P40073): 0; SPOT intensity (Sla1-2, P32790): 442; SPOT intensity (Sla1-3, P32790): 6
RRASLFPRDPKRLRP | 95 | 165 | 0 | 7 | 7 | 8 | 10 | 1 | 35 | 148 | 3 | 25 | 5 | 21 | 79 | 0 | 2 | 4 | 7 | 1 | SPOT intensity (Nbp2, Q12163): 0; SPOT intensity (Pex13, P80667): 2; SPOT intensity (Pin3, Q06449): 11; SPOT intensity (Rvs167, P39743): 0; SPOT intensity (Sho1, P40073): 67; SPOT intensity (Sla1-2, P32790): 7; SPOT intensity (Sla1-3, P32790): 158
VYTRTAFQIPGDDKI | 0 | 0 | 0 | 0 | 0 | 0 | 0 | 0 | 3 | 2 | 0 | 0 | 3 | 0 | 0 | 1120 | 0 | 0 | 0 | 0 | SPOT intensity (Nbp2, Q12163): 0; SPOT intensity (Pex13, P80667): 0; SPOT intensity (Pin3, Q06449): 29; SPOT intensity (Rvs167, P39743): 0; SPOT intensity (Sho1, P40073): 0; SPOT intensity (Sla1-2, P32790): 1; SPOT intensity (Sla1-3, P32790): 0
